Measured values taken from FireProtDB (doi:10.1016/0014-5793(94)01308-n).
Several values for one entry are separate records, joined by “and”; a condition that tells them apart may be missing. Equal values may be shown once.

Conditions: Sus scrofa, Thermal, DSC, Sodium phosphate 5 mM, reversible: yes, whole UniProt chain shown

B1: Gastricsin wild type, P30879 (protein)
chain: SVIKVPLKKLKSIRQAMKEKGLLEEFLKTHKYDPAQRYRIGDISVALEPMAYLEAAYFGEISIGTPPQNFLVL
With B1 the Tm (pH 6) was 66.2 °C, the “unfolding enthalpy (calorimetric)” value (pH 6) was 254 kcal/mol and the “unfolding enthalpy (calorimetric)” value (pH 6.4) was 248 kcal/mol and 269 kcal/mol. For the same protein, the Tm (pH 6.8) was 47.2 °C, the “unfolding enthalpy (calorimetric)” value (pH 6.8) was 221 kcal/mol and the Tm (pH 7.2) was 56.1 °C. The “unfolding enthalpy (calorimetric)” value (pH 7.2) was 195 kcal/mol, the Tm (pH 7.3) was 39.8 °C and the “unfolding enthalpy (calorimetric)” value (pH 7.3) was 192 kcal/mol. For the same protein, the Tm (pH 7.7) was 55 °C, the “unfolding enthalpy (calorimetric)” value (pH 7.7) was 173 kcal/mol and the Tm (pH 8) was 51.1 °C. For the same protein, the “unfolding enthalpy (calorimetric)” value (pH 8) was 182 kcal/mol, the Tm (pH 8.2) was 33.8 °C and the “unfolding enthalpy (calorimetric)” value (pH 8.2) was 170 kcal/mol.
